{"source": "paper PMC6769691", "key": {"[1]": {"target": "TNFRs on MR300 cells (human (endogenous in MR300))", "test": "immunostaining of cells or tissue; competition on adherent MR300 cells (CNGRC-binder): hTNF-Fc (1:50) staining, 1 h at room temperature, Alexa-594 anti-human antibody, with 0.01 to 30 µg/mL unlabeled NGR-hTNF or hTNF; percent of control"}, "[2]": {"target": "CD13 (aminopeptidase N), CNGRC-binder isoform, on HUVEC, mesoangioblasts (MB) and MR300 cells (human (endogenous in HUVEC, MB, MR300)) (UniProt P15144)", "sequence (P15144 whole entry, canonical isoform)": "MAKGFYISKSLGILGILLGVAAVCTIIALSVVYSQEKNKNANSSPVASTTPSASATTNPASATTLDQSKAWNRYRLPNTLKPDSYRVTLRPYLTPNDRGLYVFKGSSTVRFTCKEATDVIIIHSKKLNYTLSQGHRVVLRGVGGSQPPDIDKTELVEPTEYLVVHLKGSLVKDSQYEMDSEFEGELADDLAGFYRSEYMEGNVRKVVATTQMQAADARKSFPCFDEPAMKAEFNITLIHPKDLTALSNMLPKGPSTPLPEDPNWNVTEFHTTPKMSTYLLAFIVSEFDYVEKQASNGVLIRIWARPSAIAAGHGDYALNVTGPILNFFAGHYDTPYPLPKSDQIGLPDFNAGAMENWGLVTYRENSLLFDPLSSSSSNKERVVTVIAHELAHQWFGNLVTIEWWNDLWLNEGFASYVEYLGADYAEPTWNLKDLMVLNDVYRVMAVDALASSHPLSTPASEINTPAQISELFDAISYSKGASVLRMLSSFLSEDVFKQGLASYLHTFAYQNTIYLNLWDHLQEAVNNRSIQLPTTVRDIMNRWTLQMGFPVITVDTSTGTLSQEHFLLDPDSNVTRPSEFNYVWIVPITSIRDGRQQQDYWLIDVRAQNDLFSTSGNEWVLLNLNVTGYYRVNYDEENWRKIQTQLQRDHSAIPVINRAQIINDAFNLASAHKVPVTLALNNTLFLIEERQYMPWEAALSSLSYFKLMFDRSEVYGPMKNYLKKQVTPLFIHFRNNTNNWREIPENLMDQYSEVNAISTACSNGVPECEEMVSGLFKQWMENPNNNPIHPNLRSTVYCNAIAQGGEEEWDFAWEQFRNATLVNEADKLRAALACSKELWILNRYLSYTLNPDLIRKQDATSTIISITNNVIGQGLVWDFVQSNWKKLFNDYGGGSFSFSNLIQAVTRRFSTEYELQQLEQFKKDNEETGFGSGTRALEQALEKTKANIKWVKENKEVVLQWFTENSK"}}, "data": [{"substance": "hTNF (ligand)", "values": [{"measurement": "IC50", "setting": "[1]", "result": 20, "unit": "nM"}]}, {"substance": "NGR-hTNF (ligand)", "values": [{"measurement": "IC50", "setting": "[1]", "result": 5, "unit": "nM"}, {"measurement": "phosphorylation of Akt-Ser473 in MR300 cells treated with NGR-hTNF in comparison to hTNF (Kinexus phospho-site screen)", "setting": "[2]", "result": -36, "unit": "%"}, {"measurement": "phosphorylation of Erk1 in MR300 cells treated with NGR-hTNF in comparison to hTNF (Kinexus phospho-site screen)", "setting": "[2]", "result": -36, "unit": "%"}, {"measurement": "phosphorylation of Erk2 in MR300 cells treated with NGR-hTNF in comparison to hTNF (Kinexus phospho-site screen)", "setting": "[2]", "result": -35, "unit": "%"}]}]}
